Test results taken from patent publication US20170305994A1 (Novo Nordisk, published 2017).

T1: human DR3 (full length, on cells) (human, UniProt Q93038 25-417)
T1 sequence: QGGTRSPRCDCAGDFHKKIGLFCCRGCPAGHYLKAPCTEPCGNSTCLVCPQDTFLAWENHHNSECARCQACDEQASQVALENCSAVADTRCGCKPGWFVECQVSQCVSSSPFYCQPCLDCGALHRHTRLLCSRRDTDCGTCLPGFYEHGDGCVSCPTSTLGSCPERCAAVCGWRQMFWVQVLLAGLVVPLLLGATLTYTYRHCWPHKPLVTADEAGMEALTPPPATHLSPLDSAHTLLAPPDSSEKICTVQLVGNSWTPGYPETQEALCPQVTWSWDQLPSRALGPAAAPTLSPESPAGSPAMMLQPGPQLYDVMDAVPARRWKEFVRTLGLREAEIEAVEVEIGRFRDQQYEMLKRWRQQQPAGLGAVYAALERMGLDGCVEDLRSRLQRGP

T2: human DR3 with the death domain deleted (ΔM339-P417 of SEQ ID NO:1), expressed on CHOK1SV cells (human, UniProt Q93038 25-338)
T2 construct: also called truncated DR3; hDR3 expressing CHO cells
T2 sequence: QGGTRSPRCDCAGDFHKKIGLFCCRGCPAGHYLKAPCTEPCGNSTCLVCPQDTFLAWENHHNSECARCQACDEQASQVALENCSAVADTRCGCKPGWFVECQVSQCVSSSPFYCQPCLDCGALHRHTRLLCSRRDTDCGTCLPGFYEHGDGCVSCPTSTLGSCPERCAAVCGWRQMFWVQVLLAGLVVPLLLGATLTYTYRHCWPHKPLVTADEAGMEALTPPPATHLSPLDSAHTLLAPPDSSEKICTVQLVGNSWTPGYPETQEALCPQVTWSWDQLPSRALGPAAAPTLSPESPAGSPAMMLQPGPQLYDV


How the values were obtained:
[1] = target: T1, human DR3 (full length, on cells); experiment: cell-based or functional assay
[2] = target: T1, human DR3 (full length, on cells); experiment: cell-based or functional assay; remark: listed apart in the source
[3] = target: T2, human DR3 with the death domain deleted …; experiment: flow cytometry competition: Fab vs TL1A on hDR3-expressing CHO cells
DR3 (CRD1)-Fc = target: T3, DR3 (CRD1)-Fc (human); experiment: SPR Biacore T200, DR3(CRD1)-Fc captured by anti-human IgG, Fab as analyte, 25 C, 1:1 model, mean of 3 surface densities
T3 construct: Amino acids 25-71 of DR3 fused to the Fc domain of human IgG4; purified to exclude oligomers (mainly dimeric)
Procedure: The experiments were performed on a Biacore T200 instrument (GE Healthcare) and analysed with the Biacore T200 Evaluation Software. Anti human IgG antibodies (human IgG capture kit from GE Healthcare) were immobilized on all flow cells of a CM5 sensor chip according to manufacturer's instructions. HBS-EP (GE Healthcare) with 0.1% human serum albumin was used as running buffer. DR3(CRD1)-Fc (SEQ ID NO:2) was captured on the chip at low surface densities between 14 and 45 RU. Fab fragments were diluted to concentrations between 90 and 0.037 nM and subsequently injected for 360 s. […] Binding curves were measured at 25° C. with a flow rate between 30 and 60 μL/min.
Regeneration was performed with 3 M […] for 2×20 s. The raw data were double referenced by subtraction of the signals from a reference flow cell without captured ligand and a buffer blank. Determination of the kinetic parameters was performed by fitting with a 1:1 binding model using the Biacore T200 Evaluation Software (GE Healthcare). Average values obtained from 3 different surface densities of DR3(CRD1)-Fc (SEQ ID NO:2) were calculated and are stated in table 14

[4] = target: T1, human DR3 (full length, on cells); experiment: cell-based or functional assay; remark: listed apart in the source
[5] = target: T1, human DR3 (full length, on cells); experiment: cell-based or functional assay; remark: listed apart in the source
[6] = target: T1, human DR3 (full length, on cells); experiment: cell-based or functional assay; remark: listed apart in the source

T3 sequence (chain, as listed by the source limits assumed): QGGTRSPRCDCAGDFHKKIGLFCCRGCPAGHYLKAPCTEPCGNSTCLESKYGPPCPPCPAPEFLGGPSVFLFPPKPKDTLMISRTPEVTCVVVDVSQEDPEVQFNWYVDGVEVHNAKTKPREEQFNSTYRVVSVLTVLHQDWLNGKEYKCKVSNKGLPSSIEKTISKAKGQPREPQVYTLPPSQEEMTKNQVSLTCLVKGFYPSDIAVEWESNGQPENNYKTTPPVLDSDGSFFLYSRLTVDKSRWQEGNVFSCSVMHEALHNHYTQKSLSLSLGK

Binder | IC50 at 40 ng/ml TL1A, I5 reporter cells [1] | IC50, TNFalpha inhibition, TL1A-activated CD4+ T cells, donor 1 [2] | IC50, TNFalpha inhibition, TL1A-activated CD4+ T cells, donor 2 [2] | max % inhibition of TNFalpha, donor 1 [2] | max % inhibition of TNFalpha, donor 2 [2] | Kd (DR3 (CRD1)-Fc) | koff (DR3 (CRD1)-Fc) | kon (DR3 (CRD1)-Fc) | IC50 [3] | max percentage inhibition [3] | further results
0122 (chimeric Fab of 27F16, human IgG4 constant domain, hinge Cys->Ser) (Fab, V domains shown, murine variable domains, human IgG4 constant domain (IgG4-Ser), human kappa) VH: EVQLVESGGDFVKPGGSLKLSCAASGFTFNNYGMSWVRQTPDKRLEWVAAISSGVTYTYYPDTVKGRFTISRDNAKNTLYLHMSSLKSEDTAMYYCGRHDDYGNHFDYWGQGTTLTVSS VL: DIVMTQSPSSLAMSLGQRVTMNCKSSQSLLNSHNQKNYLAWYQQKPGQSPKLLVYFASSRESGVPDRFIGSGSGTDFTLTISSVQAEDLADYFCQQHYSTPFTFGSGTKLEIKR |  |  |  | 3.9% | 10% |  |  |  | 5.11 nM | 33% | 
0118 (chimeric Fab of 27F16, human IgG1 constant domain) (Fab, V domains shown) VH: EVQLVESGGDFVKPGGSLKLSCAASGFTFNNYGMSWVRQTPDKRLEWVAAISSGVTYTYYPDTVKGRFTISRDNAKNTLYLHMSSLKSEDTAMYYCGRHDDYGNHFDYWGQGTTLTVSS VL: DIVMTQSPSSLAMSLGQRVTMNCKSSQSLLNSHNQKNYLAWYQQKPGQSPKLLVYFASSRESGVPDRFIGSGSGTDFTLTISSVQAEDLADYFCQQHYSTPFTFGSGTKLEIKR |  |  |  |  |  |  |  |  |  |  | IFN-γ, TL1A-costimulated lymphocytes, Fab 0.003 µg/mL [4]: 132 ng/mL; IFN-γ, TL1A-costimulated lymphocytes, Fab 0.01 µg/mL [4]: 134 ng/mL; IFN-γ, TL1A-costimulated lymphocytes, Fab 0.03 µg/mL [4]: 158 ng/mL; IFN-γ, TL1A-costimulated lymphocytes, Fab 0.1 µg/mL [4]: 151 ng/mL; IFN-γ, TL1A-costimulated lymphocytes, Fab 0.3 µg/mL [4]: 124 ng/mL; IFN-γ, TL1A-costimulated lymphocytes, Fab 1.0 µg/mL [4]: 132 ng/mL; IFN-γ, TL1A-costimulated RA SF cells, Fab 0.003 µg/mL [5]: 2310 pg/mL; IFN-γ, TL1A-costimulated RA SF cells, Fab 0.01 µg/mL [5]: 2280 pg/mL; IFN-γ, TL1A-costimulated RA SF cells, Fab 0.03 µg/mL [5]: 2080 pg/mL; IFN-γ, TL1A-costimulated RA SF cells, Fab 0.1 µg/mL [5]: 2100 pg/mL; IFN-γ, TL1A-costimulated RA SF cells, Fab 0.3 µg/mL [5]: 2120 pg/mL; IFN-γ, TL1A-costimulated RA SF cells, Fab 1 µg/mL [5]: 2230 pg/mL
0124 (chimeric Fab of 28F26, human IgG4 constant domain, hinge Cys->Ser) (Fab, V domains shown, murine variable domains, human IgG4 constant domain (IgG4-Ser)) VH: EVKVVESGGGLVKPGGSLKLSCAASGFVFSSYDMSWVRQIPEKRLEWVAAISSGDYYTYYPDSVKGRFTISRDDARNTLYLQMSSLRSEDTALYYCARHRGGNYPQYAMDYWGQGTSVTVSS VL: DILLTQSPASFAVSLGQRATISCRASKSVSTSGYNYIHWYQQKPGQPPKLLIYLTSNLESGVPARFSGSGSGTDFTLNIHPVEEEDAATYYCQHSRELPFTFGSGTKLEIKR | 2.4 nM | 1.11 nM | 1.21 nM | 52.3% | 41.3% | 0.267 nM | 0.000201 s⁻¹ | 752000 M⁻¹ s⁻¹ | 1.3 nM | 79% | IC50, TNFalpha inhibition, average (n 4) [2]: 1.33 nM; GM-CSF, fold downregulation, +TL1A + anti DR3 Fab [6]: 7.9 fold; IFNγ, fold downregulation, +TL1A + anti DR3 Fab [6]: 1.1 fold; IL-6, fold downregulation, +TL1A + anti DR3 Fab [6]: 13.3 fold; TNFα, fold downregulation, +TL1A + anti DR3 Fab [6]: 5 fold
0169 (humanized IgG1 Fab of 0072; HC T28A S49A Y91; LC Q3A T5A S60A M4L) (Fab, V domains shown) VH: EVQLVESGGGLVQPGGSLRLSCAASGFTFSNYDMSWVRQAAGKGLEWVSAFSSDGYTFYPGAVKGRFTISRENAKNSLYLQMNSLRAGDTAVYYCARHADYANYPVMDYWGQGTLVTVSS VL: DIALAQSPSSLSASVGDRVTITCRASKSVSTSGYSYMHWYQQKPGKAPKLLIYLASNLEAGVPSRFSGSGSGTDFTLTISSLQPEDFATYYCQHSRELPLTFGGGTKVEIK |  |  |  |  |  |  |  |  |  |  | IFN-γ, TL1A-costimulated lymphocytes, Fab 0.003 µg/mL [4]: 121 ng/mL; IFN-γ, TL1A-costimulated lymphocytes, Fab 0.01 µg/mL [4]: 138 ng/mL; IFN-γ, TL1A-costimulated lymphocytes, Fab 0.03 µg/mL [4]: 81 ng/mL; IFN-γ, TL1A-costimulated lymphocytes, Fab 0.1 µg/mL [4]: 58 ng/mL; IFN-γ, TL1A-costimulated lymphocytes, Fab 0.3 µg/mL [4]: 31 ng/mL; IFN-γ, TL1A-costimulated lymphocytes, Fab 1.0 µg/mL [4]: 55 ng/mL

The next lines start with results.

IC50 at 40 ng/ml TL1A, I5 reporter cells [1] | IC50, TNFalpha inhibition, TL1A-activated CD4+ T cells, donor 1 [2] | IC50, TNFalpha inhibition, TL1A-activated CD4+ T cells, donor 2 [2] | max % inhibition of TNFalpha, donor 1 [2] | max % inhibition of TNFalpha, donor 2 [2] | Kd (DR3 (CRD1)-Fc) | koff (DR3 (CRD1)-Fc) | kon (DR3 (CRD1)-Fc) | Binder | IC50 [3] | max percentage inhibition [3] | further results
1.4 nM | 0.539 nM | 1.77 nM | 84.4% | 78% | 0.12 nM | 0.000208 s⁻¹ | 1.74e+06 M⁻¹ s⁻¹ | 0130 (recombinant murine Fab of 45F36) (Fab, V domains shown, murine Fab; also called 00130) VH: EVQLVESGGGLVKPGGSLKLSCAASGFTFSSYAMSWVRQSPDKRLEWVAEISSGDTYTYYPDTVTGRFTISRDNAKKTLYLEMSGLRSEDTAMYYCARDREAYYGQQYVMDYWGQGTSVTVSS VL: DIVLTQSPASLAVSLGLSVTISCRASESIEYSGTSFLQWYQQKPGQPPRLLIYGSSTVESGVPARFSGSGSGTDFSLNIHPVEEDDSAMYFCQQSRRLPWTFGGGTKLEIKR | 1.34 nM | 73% | IC50, TNFalpha inhibition, average (n 5) [2]: 0.642 nM
0.29 nM | 0.148 nM | 0.074 nM | 76.7% | 66% | 0.00147 nM | 5.1e-06 s⁻¹ | 3.49e+06 M⁻¹ s⁻¹ | 0143 (chimeric Fab of 44F434, human IgG4 constant domain, hinge Cys->Ser) (Fab, V domains shown, IgG4-Ser, chimeric) VH: EVQLVESGGDLVMPGGSLKLSCAASGFIFSSYGLSWIRQTPDKRLEWVATISGGDSYTYYPDSVKGRFTISSDNAKNTLYLQMTSLKSEDTAMYYCATQREIYYGTYYALDHWGQGTSVTVSS VL: DIQMTQTTSSLSASLGDRVTISCRASQDINNYLNWYQQKPDGTVKLLIYYTSRLQSGVPSRFSGSGSGTDYSLTISSLEQDDIATYFCQQGSPLPWTFGGGTKLEIKR | 0.12 nM | 76% | IC50, TNFalpha inhibition, average (n 5) [2]: 0.125 nM
 |  |  |  |  | 0.00955 nM | 3.06e-05 s⁻¹ | 3.2e+06 M⁻¹ s⁻¹ | 0219 (humanized Fab of 27F44, IgG1, S49A HC) (Fab, V domains shown, Human IgG1 constant part) VH: EVQLVESGGGLVQPGGSLRLSCAASGFTFSNYDMSWVRQATGKGLEWVAAFSSDGYTFYPGSVKGRFTISRENAKNSLYLQMNSLRAGDTAVYYCARHADYANYPVMDYWGQGTLVTVSS VL: DIQMTQSPSSLSASVGDRVTITCRASKSVSTSGYSYMHWYQQKPGKAPKLLIYLASNLESGVPSRFSGSGSGTDFTLTISSLQPEDFATYYCQHSRELPLTFGGGTKVEIK |  |  | 
